From patent US20240182596A1 (TUBULIS, published 2024)

Tests used:
[1] = molecular target: T1, human NaPi2b on NaPi2b-positive cell lines OVCAR-3 and HCC-78 (human, UniProt O95436 1-690); assay: flow cytometry on OVCAR-3 cells; table column Binding KD (nmol/L), FACS (OVCAR-3)
T1 construct: Endogenous protein
T1 sequence: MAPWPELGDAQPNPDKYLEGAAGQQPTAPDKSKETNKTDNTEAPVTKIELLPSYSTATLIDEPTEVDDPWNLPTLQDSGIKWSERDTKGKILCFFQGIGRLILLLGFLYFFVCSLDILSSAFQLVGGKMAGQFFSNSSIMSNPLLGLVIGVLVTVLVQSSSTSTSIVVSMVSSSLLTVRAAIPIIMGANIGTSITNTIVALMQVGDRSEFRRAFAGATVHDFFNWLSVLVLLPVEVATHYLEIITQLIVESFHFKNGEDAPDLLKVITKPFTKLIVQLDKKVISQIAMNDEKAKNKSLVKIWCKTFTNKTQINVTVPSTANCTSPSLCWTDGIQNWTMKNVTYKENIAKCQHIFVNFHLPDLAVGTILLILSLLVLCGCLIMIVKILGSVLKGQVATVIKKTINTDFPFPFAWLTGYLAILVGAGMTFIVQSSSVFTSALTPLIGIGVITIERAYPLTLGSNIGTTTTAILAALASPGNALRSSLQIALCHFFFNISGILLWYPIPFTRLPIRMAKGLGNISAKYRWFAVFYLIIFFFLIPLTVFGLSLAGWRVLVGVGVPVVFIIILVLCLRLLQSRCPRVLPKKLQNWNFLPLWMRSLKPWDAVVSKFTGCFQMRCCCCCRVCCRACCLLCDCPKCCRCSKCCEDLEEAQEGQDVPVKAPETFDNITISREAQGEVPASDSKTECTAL

[2] = molecular target: T2, purified recombinant human Napi2b antigen consisting of Napi2b-extracellular-loop2 expressed as … (human, UniProt O95436 234-362, limits assumed); assay: ELISA on the isolated immobilized protein; table column Binding KD (nmol/L), ELISA
T2 construct: Expressed in Expi-HEK293 cells; also called immobilized human NaPi2B; not shown: Fc part; 6-His tag
T2 sequence: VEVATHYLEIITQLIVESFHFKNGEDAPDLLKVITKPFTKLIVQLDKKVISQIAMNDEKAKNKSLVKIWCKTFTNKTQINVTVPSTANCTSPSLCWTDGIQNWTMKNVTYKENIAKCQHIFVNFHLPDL

FcγRIIIa (CD16) (V158) = molecular target: T3, FcγRIIIa (CD16) (V158) (Homo sapiens, UniProt P08637); assay: Lumit FcγRIIIa (V158) Binding Immunoassay (Promega), left panel FcγRIIIa (CD16) (V158), competition with Tracer-LgBiT for FcγR-SmBiT, falling luminescence means binding, n=1
T3 construct: m21 joins both polymorphic variants; also called V158 variant of m21
T3 sequence (P08637 17-208 F176V limits assumed): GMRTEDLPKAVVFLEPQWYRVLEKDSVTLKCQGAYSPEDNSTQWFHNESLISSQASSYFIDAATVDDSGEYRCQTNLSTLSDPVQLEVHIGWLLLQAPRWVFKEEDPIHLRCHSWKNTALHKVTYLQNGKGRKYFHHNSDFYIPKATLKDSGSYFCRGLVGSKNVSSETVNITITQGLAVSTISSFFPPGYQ
Experimental: Luminescence is measured on a microplate reader Infinite M200 Pro (Tecan). Graphs show n=1.
Luminescence was measured on a microplate reader Infinite M200 Pro (Tecan). Graphs show n=1.

[3] = molecular target: T4, human Napi2c-mCherry on HEK293 cells (human, UniProt Q8N130 1-599); assay: flow cytometry on HEK293 cells expressing human Napi2c-mCherry (panel Napi2c-HEK293), MFI ratio to the non-specific binding control
T4 construct: whole, on cells; also called Napi2c (SLC34A3); not shown: mCherry fusion
T4 sequence (looked up): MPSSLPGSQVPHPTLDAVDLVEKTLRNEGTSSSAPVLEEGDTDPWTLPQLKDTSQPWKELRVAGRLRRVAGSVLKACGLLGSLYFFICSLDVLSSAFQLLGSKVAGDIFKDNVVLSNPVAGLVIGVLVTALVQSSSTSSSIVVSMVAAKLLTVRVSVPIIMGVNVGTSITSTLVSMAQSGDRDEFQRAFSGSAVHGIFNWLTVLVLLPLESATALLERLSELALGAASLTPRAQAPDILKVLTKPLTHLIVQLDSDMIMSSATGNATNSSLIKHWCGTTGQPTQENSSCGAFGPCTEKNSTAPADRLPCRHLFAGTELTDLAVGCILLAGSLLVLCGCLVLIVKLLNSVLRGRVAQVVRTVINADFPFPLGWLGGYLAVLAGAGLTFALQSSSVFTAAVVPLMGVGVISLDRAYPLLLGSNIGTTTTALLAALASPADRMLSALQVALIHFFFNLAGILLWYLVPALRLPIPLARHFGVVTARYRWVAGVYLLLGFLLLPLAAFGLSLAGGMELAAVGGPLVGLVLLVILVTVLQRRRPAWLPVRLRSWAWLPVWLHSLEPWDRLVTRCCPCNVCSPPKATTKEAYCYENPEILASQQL

[4] = molecular target: T5, HEK293 cyno-NaPi2B-mCherry (Macaca fascicularis, UniProt A0A2K5UHY1); assay: flow cytometry on HEK293 cells stably expressing cynomolgus full-length NaPi2b-mCherry, Alexa-dye anti-human IgG H+L secondary antibody, MFI ratio, one-site specific binding fit; the Kd table prints no unit, the concentration axis is in nM
T5 construct: full-length mCherry fusion stably expressed on HEK293 cells; also called cynomolgus full-length NaPi2b-mCherry on HEK293 cells
T5 sequence (target on cells): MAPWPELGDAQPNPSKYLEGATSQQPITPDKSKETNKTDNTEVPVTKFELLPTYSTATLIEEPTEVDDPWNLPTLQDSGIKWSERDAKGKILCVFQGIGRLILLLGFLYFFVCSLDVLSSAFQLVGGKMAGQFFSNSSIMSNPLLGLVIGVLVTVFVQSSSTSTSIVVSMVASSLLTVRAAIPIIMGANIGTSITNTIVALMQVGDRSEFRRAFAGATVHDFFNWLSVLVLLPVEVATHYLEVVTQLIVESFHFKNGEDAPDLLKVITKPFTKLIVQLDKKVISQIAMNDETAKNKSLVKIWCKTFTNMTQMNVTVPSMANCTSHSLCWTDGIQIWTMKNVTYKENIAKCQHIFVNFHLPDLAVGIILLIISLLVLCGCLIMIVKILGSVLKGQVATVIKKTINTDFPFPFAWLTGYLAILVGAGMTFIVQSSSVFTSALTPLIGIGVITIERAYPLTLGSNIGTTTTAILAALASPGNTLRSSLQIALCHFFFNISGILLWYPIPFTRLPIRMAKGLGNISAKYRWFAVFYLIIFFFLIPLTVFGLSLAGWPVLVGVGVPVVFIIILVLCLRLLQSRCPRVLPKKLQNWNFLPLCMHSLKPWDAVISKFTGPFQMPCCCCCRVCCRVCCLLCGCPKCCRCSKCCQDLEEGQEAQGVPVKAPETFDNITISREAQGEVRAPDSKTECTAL
Text: HEK293 cells stably overexpressing human and rat Napi2b were generated by stable integration of a human or rat full-length Napi2b-mCherry-(GGGS)3x-mCherry expression construct under control of a human EF1 promoter and a Puromycin-selection cassette under a CMV promoter into the parental HEK293 cell line. In brief, cells were transfected with the linearized plasmids using Lipfectamine 2000 (Thermo Fisher) and selected with Puromycin antibiotic. Cells were then single cell cloned in 96-well plates via serial dilution under continuous antibiotic selection. Clones were screened for target expression via flow cytometry and mCherry fluorescence via flow cytometry and fluorescence microscopy. Target- and mCherry-positive clones were expanded and used for further experiments. […] Binding of antibodies was investigated on mCherry-positive cells. Mean fluorescence intensity (MFI) ratios were normalized to the secondary antibody control. The assay was performed in duplicates and data points were analyzed by a non-linear regression using a one-site specific binding model to derive KD values using Prism 9 software.

[5] = molecular target: T1, human NaPi2b on NaPi2b-positive cell …; assay: flow cytometry on NaPi2b-positive HCC-78 cells, Alexa-dye-labeled anti-human IgG H+L secondary antibody, MFI ratio normalized to the non-specific binding control
Experimental: To determine concentration-dependent binding, NaPi2b-positive OVCAR-3 and HCC-78 were incubated with antibodies in concentrations ranging from 0.00075 to 30 μg/ml, stained with an Alexa-dye-labeled anti-human IgG H+L secondary antibody (Thermo Fisher Scientific), and analyzed by flow cytometry. Mean fluorescence intensity (MFI) ratios were normalized to the non-specific binding control. The assay was performed in duplicates and data points were analyzed by a non-linear regression using a one-site specific binding model using Prism 9 software.

Kd [1]: 2.7 nM
Kd [2]: 0.071 nM
binding result (FcγRIIIa (CD16) (V158)): binds
binding result [3]: no binding (tested: 200 nM)
Kd [4]: 1.43 nM
EC50 (read off the curve) [5]: ~0.4 mg/L
B1: AV25 mAb, LALA-silenced (AV25 HC-LALA) (antibody, human IgG1, kappa, L234A L235A)
heavy: not shown
light: DIQMTQSPSSLSASVGDRVTITCSASQDIGNFLNWYQQKPGKTVKVLIYYASSLYSGVPSRFSGSGSGTDYTLTISSLQPEDFATYYCQQYSKLPLTFGQGTKLELKRTVAAPSVFIFPPSDEQLKSGTASVVCLLNNFYPREAKVQWKVDNALQSGNSQESVTEQDSKDSTYSLSSTLTLSKADYEKHKVYACEVTHQGLSSPVTKSFNRGEC
notes: also called unmodified AV25 mAb
